Results taken from US20140213531A1 (POLYPHOR, published 2014).
Bridges are numbered along the chain shown (N, C = ends). Primed or numbered codes have the meaning given here. [ ]: non-standard residue; d: D form. Pro(4NHCOPhe)″ = 4-benzamido-L-proline, (2S)-4-benzoylamino-pyrrolidine-2-carboxylic acid; Gly(octyl) = CCCCCCCC[C@H](N)C(=O)O; Pro(4NHCOPhe) = not defined here; Cha = N[C@@H](CC1CCCCC1)C(=O)O; Nle = CCCC[C@H](N)C(=O)O

T1: CathepsinG, from human neutrophils (human, UniProt P08311 21-244)
T1 construct: purified natural enzyme, bought
T1 sequence (looked up): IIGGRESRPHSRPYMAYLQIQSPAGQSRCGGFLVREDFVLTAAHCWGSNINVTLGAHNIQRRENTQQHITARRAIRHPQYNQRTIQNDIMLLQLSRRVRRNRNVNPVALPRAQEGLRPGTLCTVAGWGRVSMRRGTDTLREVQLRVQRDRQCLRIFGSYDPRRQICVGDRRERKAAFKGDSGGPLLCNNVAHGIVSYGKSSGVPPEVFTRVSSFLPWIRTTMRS

T2: Chymase, from human skin (human, UniProt P23946 22-247)
T2 construct: purified natural enzyme, bought
T2 sequence (looked up): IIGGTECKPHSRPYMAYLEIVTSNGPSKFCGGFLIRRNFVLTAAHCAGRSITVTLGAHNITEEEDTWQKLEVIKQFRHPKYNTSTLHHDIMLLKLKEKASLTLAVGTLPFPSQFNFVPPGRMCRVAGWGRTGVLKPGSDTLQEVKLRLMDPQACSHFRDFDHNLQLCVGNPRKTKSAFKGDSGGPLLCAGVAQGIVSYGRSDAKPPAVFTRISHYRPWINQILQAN

B1: Example 91 (peptide)
peptide: XCTASIPPQCQ
HELM: PEPTIDE1{[Nle].C.T.A.S.I.P.P.Q.C.Q.[dP].P}$PEPTIDE1,PEPTIDE1,2:R3-10:R3|PEPTIDE1,PEPTIDE1,1:R1-13:R2$$$V2.0
SMILES: CCCC[C@@H]1NC(=O)[C@@H]2CCCN2C(=O)[C@H]2CCCN2C(=O)[C@H](CCC(N)=O)NC(=O)[C@@H]2CSSC[C@H](NC1=O)C(=O)N[C@@H]([C@@H](C)O)C(=O)N[C@@H](C)C(=O)N[C@@H](CO)C(=O)N[C@@H]([C@@H](C)CC)C(=O)N1CCC[C@H]1C(=O)N1CCC[C@H]1C(=O)N[C@@H](CCC(N)=O)C(=O)N2
notes: also called Ex. 91
B2: Example 154 (peptide)
peptide: XQTASIPPQTY
HELM: PEPTIDE1{[CCCCCCCC[C@H](N[*:1])C(=O)[*:2]].Q.T.A.S.I.P.P.Q.T.Y.[dP].P}$PEPTIDE1,PEPTIDE1,1:R1-13:R2$$$V2.0
SMILES: CCCCCCCC[C@@H]1NC(=O)[C@@H]2CCCN2C(=O)[C@H]2CCCN2C(=O)[C@H](Cc2ccc(O)cc2)NC(=O)[C@H]([C@@H](C)O)NC(=O)[C@H](CCC(N)=O)NC(=O)[C@@H]2CCCN2C(=O)[C@@H]2CCCN2C(=O)[C@H]([C@@H](C)CC)NC(=O)[C@H](CO)NC(=O)[C@H](C)NC(=O)[C@H]([C@@H](C)O)NC(=O)[C@H](CCC(N)=O)NC1=O
B3: Example 174 (peptide)
peptide: XCTASIPPQCY
HELM: PEPTIDE1{[O=C([C@H](CCc1ccccc1)N[*:1])[*:2]].C.T.A.S.I.P.P.Q.C.Y.[dK].E}$PEPTIDE1,PEPTIDE1,2:R3-10:R3|PEPTIDE1,PEPTIDE1,1:R1-13:R2$$$V2.0
SMILES: CC[C@H](C)[C@@H]1NC(=O)[C@H](CO)NC(=O)[C@H](C)NC(=O)[C@H]([C@@H](C)O)NC(=O)[C@@H]2CSSC[C@H](NC(=O)[C@H](CCC(N)=O)NC(=O)[C@@H]3CCCN3C(=O)[C@@H]3CCCN3C1=O)C(=O)N[C@@H](Cc1ccc(O)cc1)C(=O)N[C@H](CCCCN)C(=O)N[C@@H](CCC(=O)O)C(=O)N[C@@H](CCc1ccccc1)C(=O)N2
B4: Example 167 (peptide)
peptide: XCTASIPPQCY
HELM: PEPTIDE1{[Nle].C.T.A.S.I.P.P.Q.C.Y.[dP].F}$PEPTIDE1,PEPTIDE1,2:R3-10:R3|PEPTIDE1,PEPTIDE1,1:R1-13:R2$$$V2.0
SMILES: CCCC[C@@H]1NC(=O)[C@H](Cc2ccccc2)NC(=O)[C@H]2CCCN2C(=O)[C@H](Cc2ccc(O)cc2)NC(=O)[C@@H]2CSSC[C@H](NC1=O)C(=O)N[C@@H]([C@@H](C)O)C(=O)N[C@@H](C)C(=O)N[C@@H](CO)C(=O)N[C@@H]([C@@H](C)CC)C(=O)N1CCC[C@H]1C(=O)N1CCC[C@H]1C(=O)N[C@@H](CCC(N)=O)C(=O)N2
notes: also called Ex. 167
B5: Example 169 (peptide)
peptide: XCTASXPPQCY
HELM: PEPTIDE1{[Nle].C.T.A.S.[CCCCCCCC[C@H](N[*:1])C(=O)[*:2]].P.P.Q.C.Y.[dP].Q}$PEPTIDE1,PEPTIDE1,2:R3-10:R3|PEPTIDE1,PEPTIDE1,1:R1-13:R2$$$V2.0
SMILES: CCCCCCCC[C@@H]1NC(=O)[C@H](CO)NC(=O)[C@H](C)NC(=O)[C@H]([C@@H](C)O)NC(=O)[C@@H]2CSSC[C@H](NC(=O)[C@H](CCC(N)=O)NC(=O)[C@@H]3CCCN3C(=O)[C@@H]3CCCN3C1=O)C(=O)N[C@@H](Cc1ccc(O)cc1)C(=O)N1CCC[C@@H]1C(=O)N[C@@H](CCC(N)=O)C(=O)N[C@@H](CCCC)C(=O)N2
notes: also called Ex. 169
B6: Example 136 (peptide)
peptide: XCTASIPPQCX
HELM: PEPTIDE1{[Nle].C.T.A.S.I.P.P.Q.C.[Phg].[dP].P}$PEPTIDE1,PEPTIDE1,2:R3-10:R3|PEPTIDE1,PEPTIDE1,1:R1-13:R2$$$V2.0
SMILES: CCCC[C@@H]1NC(=O)[C@@H]2CCCN2C(=O)[C@H]2CCCN2C(=O)[C@H](c2ccccc2)NC(=O)[C@@H]2CSSC[C@H](NC1=O)C(=O)N[C@@H]([C@@H](C)O)C(=O)N[C@@H](C)C(=O)N[C@@H](CO)C(=O)N[C@@H]([C@@H](C)CC)C(=O)N1CCC[C@H]1C(=O)N1CCC[C@H]1C(=O)N[C@@H](CCC(N)=O)C(=O)N2
notes: also called Ex. 136
B7: Example 140 (peptide)
peptide: XCTASXPPQCY
HELM: PEPTIDE1{[Nle].C.T.A.S.[O=C([C@@H](N[*:1])C1CCCCC1)[*:2]].P.P.Q.C.Y.[dP].P}$PEPTIDE1,PEPTIDE1,2:R3-10:R3|PEPTIDE1,PEPTIDE1,1:R1-13:R2$$$V2.0
SMILES: CCCC[C@@H]1NC(=O)[C@@H]2CCCN2C(=O)[C@H]2CCCN2C(=O)[C@H](Cc2ccc(O)cc2)NC(=O)[C@@H]2CSSC[C@H](NC1=O)C(=O)N[C@@H]([C@@H](C)O)C(=O)N[C@@H](C)C(=O)N[C@@H](CO)C(=O)N[C@@H](C1CCCCC1)C(=O)N1CCC[C@H]1C(=O)N1CCC[C@H]1C(=O)N[C@@H](CCC(N)=O)C(=O)N2
notes: also called Ex. 140
B8: Example 146 (peptide)
peptide: XCTASIPPQCF
HELM: PEPTIDE1{[O=C([C@H](CCc1ccccc1)N[*:1])[*:2]].C.T.A.S.I.P.P.Q.C.F.[dP].P}$PEPTIDE1,PEPTIDE1,2:R3-10:R3|PEPTIDE1,PEPTIDE1,1:R1-13:R2$$$V2.0
SMILES: CC[C@H](C)[C@@H]1NC(=O)[C@H](CO)NC(=O)[C@H](C)NC(=O)[C@H]([C@@H](C)O)NC(=O)[C@@H]2CSSC[C@H](NC(=O)[C@H](CCC(N)=O)NC(=O)[C@@H]3CCCN3C(=O)[C@@H]3CCCN3C1=O)C(=O)N[C@@H](Cc1ccccc1)C(=O)N1CCC[C@@H]1C(=O)N1CCC[C@H]1C(=O)N[C@@H](CCc1ccccc1)C(=O)N2

molecular target: T1, CathepsinG, from human neutrophils; assay: enzyme inhibition, pNA substrate

Binder | % inhibition at 100 µM [%]
cyclo([Nle]CAASIPPQCY[dP]P) (disulfide 2-10, also called Ex. 86) [Example 86] | 47
B1 | 45
B2 | 27
cyclo([Gly(octyl)]ETASIPPQKY[dP]P) (also called Ex. 156) [Example 156] | 46
B3 | 56
cyclo([Nle]CTAS[Cha]P[Pro(4NHCOPhe)]QCQ[dQ]Q) (disulfide 2-10; reading uncertain, also called Ex. 176) [Example 176] | 69

molecular target: T3, Trypsin, Iodination grade, from human pancreas (human, UniProt P07477 24-247); assay: enzyme inhibition, pNA substrate
T3 construct: purified natural enzyme, bought

Binder | % inhibition at 100 µM [%]
cyclo([Nle]CTASIP[Pro(4NHCOPhe)″]QCY[dP]P) (disulfide 2-10) [Example 138] | 12.2
B4 | 19
cyclo([Nle]CAASIPPQCY[dP]P) (disulfide 2-10, also called Ex. 86) [Example 86] | 0
B1 | 0
B2 | 0
cyclo([Gly(octyl)]ETASIPPQKY[dP]P) (also called Ex. 156) [Example 156] | 0
B5 | 10.8
B6 | 0
B7 | 10.8

molecular target: T4, Chymotrypsin, from human pancreas (human, UniProt P17538 19-263); assay: enzyme inhibition, pNA substrate
T4 construct: purified natural enzyme, bought
T4 sequence (P17538 19-263): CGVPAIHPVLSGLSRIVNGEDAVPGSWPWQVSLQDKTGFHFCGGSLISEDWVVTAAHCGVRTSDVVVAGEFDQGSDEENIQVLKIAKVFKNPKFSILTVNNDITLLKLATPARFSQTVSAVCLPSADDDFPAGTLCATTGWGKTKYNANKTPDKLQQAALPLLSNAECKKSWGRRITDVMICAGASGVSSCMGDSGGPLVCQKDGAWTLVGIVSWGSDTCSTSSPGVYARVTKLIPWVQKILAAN

Binder | % inhibition at 100 µM [%]
cyclo([Nle]CTASIP[Pro(4NHCOPhe)″]QCY[dP]P) (disulfide 2-10) [Example 138] | 77.1
B4 | 60.2
B8 | 87
B5 | 79.6
B6 | 67.9
B3 | 85
B7 | 79.6
cyclo([Nle]CTAS[Cha]P[Pro(4NHCOPhe)]QCQ[dQ]Q) (disulfide 2-10; reading uncertain, also called Ex. 176) [Example 176] | 55

molecular target: T2, Chymase, from human skin; assay: enzyme inhibition, pNA substrate

Binder | % inhibition at 100 µM [%]
cyclo([Nle]CAASIPPQCY[dP]P) (disulfide 2-10, also called Ex. 86) [Example 86] | 0
B8 | 0
B2 | 0
cyclo([Gly(octyl)]ETASIPPQKY[dP]P) (also called Ex. 156) [Example 156] | 0
B5 | 0
B6 | 0
B3 | 0
B7 | 0

molecular target: Thrombin, from Human Plasma, high activity (human, UniProt P00734 328-622); assay: enzyme inhibition, pNA substrate

Binder | % inhibition at 100 µM [%]
cyclo([Nle]CTASIP[Pro(4NHCOPhe)″]QCY[dP]P) (disulfide 2-10) [Example 138] | 17.1
B4 | 0
cyclo([Nle]CAASIPPQCY[dP]P) (disulfide 2-10, also called Ex. 86) [Example 86] | 10.7
B1 | 13.5
B8 | 11
cyclo([Gly(octyl)]ETASIPPQKY[dP]P) (also called Ex. 156) [Example 156] | 17
B5 | 20.6
B3 | 11
B7 | 20.6
cyclo([Nle]CTAS[Cha]P[Pro(4NHCOPhe)]QCQ[dQ]Q) (disulfide 2-10; reading uncertain, also called Ex. 176) [Example 176] | 15

molecular target: T5, Coagulation Factor Xa, from uman plasma (human, UniProt P00742 41-179; P00742 235-488, limits assumed); assay: enzyme inhibition, pNA substrate
T5 construct: purified natural enzyme, bought; also called FXa
T5 sequence (P00742 41-179 limits assumed, chain 1 of 2): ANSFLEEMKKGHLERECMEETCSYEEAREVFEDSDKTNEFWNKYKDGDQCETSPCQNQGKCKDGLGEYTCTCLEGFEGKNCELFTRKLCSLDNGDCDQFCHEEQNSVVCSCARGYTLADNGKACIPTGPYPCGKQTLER
T5 sequence (P00742 235-488 limits assumed, chain 2 of 2): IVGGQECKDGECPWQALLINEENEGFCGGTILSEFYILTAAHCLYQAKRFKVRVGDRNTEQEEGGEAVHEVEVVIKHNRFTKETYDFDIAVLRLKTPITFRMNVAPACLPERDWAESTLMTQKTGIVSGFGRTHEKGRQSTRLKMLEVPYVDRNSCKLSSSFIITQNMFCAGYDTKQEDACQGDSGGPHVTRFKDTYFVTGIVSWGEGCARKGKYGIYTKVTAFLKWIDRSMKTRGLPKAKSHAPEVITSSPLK

Binder | % inhibition at 100 µM [%]
cyclo([Nle]CTASIP[Pro(4NHCOPhe)″]QCY[dP]P) (disulfide 2-10) [Example 138] | 12.6
B4 | 19.6
cyclo([Nle]CAASIPPQCY[dP]P) (disulfide 2-10, also called Ex. 86) [Example 86] | 24.8
B1 | 19.4
B2 | 0
cyclo([Gly(octyl)]ETASIPPQKY[dP]P) (also called Ex. 156) [Example 156] | 0
B5 | 13.3
B6 | 0
B7 | 13.3

molecular target: T6, Urokinase from human urine (human, UniProt P00749 21-431, limits assumed); assay: enzyme inhibition, pNA substrate
T6 construct: purified natural enzyme, bought

Binder | % inhibition at 100 µM [%]
cyclo([Nle]CTASIP[Pro(4NHCOPhe)″]QCY[dP]P) (disulfide 2-10) [Example 138] | 14.4
B4 | 11.1
B8 | 0
B5 | 10.4
B6 | 0
B7 | 10.4

molecular target: T7, Tryptase, from human lung (human, UniProt Q15661 31-275, limits assumed); assay: enzyme inhibition, pNA substrate
T7 construct: purified natural enzyme, bought
T7 sequence (Q15661 31-275 limits assumed): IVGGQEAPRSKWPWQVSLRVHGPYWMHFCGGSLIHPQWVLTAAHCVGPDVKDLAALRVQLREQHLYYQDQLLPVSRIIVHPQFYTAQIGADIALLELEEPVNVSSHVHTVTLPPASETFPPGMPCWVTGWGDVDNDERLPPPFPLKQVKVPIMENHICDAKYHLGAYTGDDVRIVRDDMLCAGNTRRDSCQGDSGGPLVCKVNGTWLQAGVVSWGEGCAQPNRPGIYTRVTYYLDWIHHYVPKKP

Binder | % inhibition at 100 µM [%]
cyclo([Nle]CTASIP[Pro(4NHCOPhe)″]QCY[dP]P) (disulfide 2-10) [Example 138] | 0
cyclo([Nle]CAASIPPQCY[dP]P) (disulfide 2-10, also called Ex. 86) [Example 86] | 0
B8 | 22
B2 | 15
cyclo([Gly(octyl)]ETASIPPQKY[dP]P) (also called Ex. 156) [Example 156] | 15
B6 | 0
B3 | 10
cyclo([Nle]CTAS[Cha]P[Pro(4NHCOPhe)]QCQ[dQ]Q) (disulfide 2-10; reading uncertain, also called Ex. 176) [Example 176] | 17
